This assay has as its target His6-Gp54^Bas11 (phage Bas11). Nature of the assay: ITC. (In general: Isothermal titration calorimetry measures the heat released or taken up as one component is titrated into another.)

One may read the Kd as the concentration at which binding is half-saturated. Read a low Kd as tighter binding. Broadly, the stoichiometry N is a count of units in the complex or per binding partner.

In turn, His6-MBP-CapRel^SJ46 (natural protein) gave a Kd of 0.8 µM and a stoichiometry N of 1.

The values are drawn from publication doi:10.1101/2024.05.10.593582.
